Measurements: publication PMC7280502, “Structure and mechanism of the Nap adhesion complex from the human pathogen Mycoplasma genitalium” (Nature Communications, 2020)

Tests used:
[1] = target: P140–P110 heterodimer of the purified Nap complex (full-length proteins, P110His strain) (Mycoplasma genitalium G37 (endogenous) | Mycoplasma genitalium G37) (UniProt P20796); assay: cryo-EM structure; single-particle cryo-EM of the Nap complex purified from the M. genitalium P110His strain in octylglucoside, 25 μg/ml; 9.8 Å; rigid-body fitting of P140 alone and P110 alone; closed conformation
[2] = target: T1, extracellular region of P140 (residues 23–1351) (Mycoplasma genitalium (strain G37), UniProt P20796 23-1351); assay: crystal structure; P140 and P110N mixed 1:1 and incubated 30 min at room temperature; crystals from 23% PEG 500MME, 4% PGA, 0.1 M sodium cacodylate pH 6.5, 20 °C; space group P2(1), four heterodimers in the asymmetric unit; 2.65 Å; conditions: both partners purified
T1 construct: also called extracellular P140; source: E. coli B834 (DE3), purified (Histrap, Superdex 200), same protocol as for P110N
T1 sequence: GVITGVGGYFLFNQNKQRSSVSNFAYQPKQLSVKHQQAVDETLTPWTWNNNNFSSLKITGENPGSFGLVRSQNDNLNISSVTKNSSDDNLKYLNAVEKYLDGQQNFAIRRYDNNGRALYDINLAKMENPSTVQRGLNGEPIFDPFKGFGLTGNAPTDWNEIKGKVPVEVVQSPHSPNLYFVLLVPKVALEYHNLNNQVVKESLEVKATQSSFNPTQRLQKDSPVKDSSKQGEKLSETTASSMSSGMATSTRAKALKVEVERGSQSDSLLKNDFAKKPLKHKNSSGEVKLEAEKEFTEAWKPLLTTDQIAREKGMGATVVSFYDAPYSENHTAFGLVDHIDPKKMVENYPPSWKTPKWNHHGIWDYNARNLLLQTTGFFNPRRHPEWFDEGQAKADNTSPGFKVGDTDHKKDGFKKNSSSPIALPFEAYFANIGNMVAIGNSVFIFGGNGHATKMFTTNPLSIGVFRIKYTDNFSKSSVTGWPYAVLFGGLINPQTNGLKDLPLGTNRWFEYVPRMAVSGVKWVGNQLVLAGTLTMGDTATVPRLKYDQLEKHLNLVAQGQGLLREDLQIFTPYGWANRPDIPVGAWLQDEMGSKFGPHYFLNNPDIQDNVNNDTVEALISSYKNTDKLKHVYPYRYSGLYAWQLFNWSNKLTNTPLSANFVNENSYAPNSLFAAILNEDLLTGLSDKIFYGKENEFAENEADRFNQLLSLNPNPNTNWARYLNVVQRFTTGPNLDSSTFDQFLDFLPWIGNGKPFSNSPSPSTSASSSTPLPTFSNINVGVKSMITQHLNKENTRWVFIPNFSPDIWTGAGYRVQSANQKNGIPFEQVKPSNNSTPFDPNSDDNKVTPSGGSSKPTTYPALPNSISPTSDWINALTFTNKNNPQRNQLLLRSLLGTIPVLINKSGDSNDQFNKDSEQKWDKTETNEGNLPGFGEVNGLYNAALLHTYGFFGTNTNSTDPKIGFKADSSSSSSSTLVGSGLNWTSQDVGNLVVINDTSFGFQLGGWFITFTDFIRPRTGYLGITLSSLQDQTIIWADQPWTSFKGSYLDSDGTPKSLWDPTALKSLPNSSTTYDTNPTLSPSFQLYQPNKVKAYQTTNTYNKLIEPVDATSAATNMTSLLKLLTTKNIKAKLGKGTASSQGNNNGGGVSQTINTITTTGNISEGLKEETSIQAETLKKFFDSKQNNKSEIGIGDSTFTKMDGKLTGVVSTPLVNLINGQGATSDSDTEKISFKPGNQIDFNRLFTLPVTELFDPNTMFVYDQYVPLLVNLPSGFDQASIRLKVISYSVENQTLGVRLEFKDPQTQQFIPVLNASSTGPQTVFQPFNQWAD

[3] = target: T1, extracellular region of P140 (residues …); assay: cryo-EM structure; single-particle cryo-EM of the purified P140–P110 heterodimer (complete extracellular regions) at 20 μg/ml; 4.1 Å, non-isotropic; X-ray P140–P110N structure fitted as a rigid body; conditions: both partners purified

P140–P110 heterodimer of the purified Nap complex (full-length proteins, P110His strain), P20796 59-1444; P22747 26-1053
stoichiometry N [1]: 2

B1: N-terminal domain of P110 (P110N: residues 23–827) (domain or fragment)
chain: ALANTFLVKEDSKNVTAYTPFATPITDSKSDLVSLAQLDSSYQIADQTIHNTNLFVLFKSRDVKVKYESSGSNNISFDSTSQGEKPSYVVEFTNSTNIGIKWTMVKKYQLDVPNVSSDMNQVLKNLILEQPLTKYTLNSSLAKEKGKTQREVHLGSGQANQWTSQRNQHDLNNNPSPNASTGFKLTTGNAYRKLSESWPIYEPIDGTKQGKGKDSSGWSSTEENEAKNDAPSVSGGGSSSGTFNKYLNTKQALESIGILFDDQTPRNVITQLYYASTSKLAVTNNHIVVMGNSFLPSMWYWVVERSAQENASNKPTWFANTNLDWGEDKQKQFVENQLGYKETTSTNSHNFHSKSFTQPAYLISGIDSVNDQIIFSGFKAGSVGYDSSSSSSSSSSSSTKDQALAWSTTTSLDSKTGYKDLVTNDTGLNGPINGSFSIQDTFSFVVPYSGNHTNNGTTGPIKTAYPVKKDQKSTVKINSLINATPLNSYGDEGIGVFDALGLNYNFKSNQERLPSRTDQIFVYGIVSPNELRSAKSSADSTGSDTKVNWSNTQSRYLPVPYNYSEGIIDADGFKRPENRGASVTTFSGLKSIAPDGFANSIANFSVGLKAGIDPNPVMSGKKANYGAVVLTRGGVVRLNFNPGNDSLLSTTDNNIAPISFSFTPFTAAESAVDLTTFKEVTYNQESGLWSYIFDSSLKPSHDGKQTPVTDNMGFSVITVSRTGIELNQDQATTTLDVAPSALAVQSGIQSTTQTLTGVLPLSEEFSAVIAKDSDQNKIDIYKNNNGLFEIDTQLSNSVATNNGGL
notes: P110, product of gene MG_192 of Mycoplasma genitalium strain G37, residues 23–827 (N-terminal domain), amplified from a synthetic clone and cloned into pOPINE; source: E. coli B834 (DE3), purified (Histrap, Superdex 200)
binding result [2]: binds

B2: extracellular region of P110 (residues 23–938) (domain or fragment)
chain: ALANTFLVKEDSKNVTAYTPFATPITDSKSDLVSLAQLDSSYQIADQTIHNTNLFVLFKSRDVKVKYESSGSNNISFDSTSQGEKPSYVVEFTNSTNIGIKWTMVKKYQLDVPNVSSDMNQVLKNLILEQPLTKYTLNSSLAKEKGKTQREVHLGSGQANQWTSQRNQHDLNNNPSPNASTGFKLTTGNAYRKLSESWPIYEPIDGTKQGKGKDSSGWSSTEENEAKNDAPSVSGGGSSSGTFNKYLNTKQALESIGILFDDQTPRNVITQLYYASTSKLAVTNNHIVVMGNSFLPSMWYWVVERSAQENASNKPTWFANTNLDWGEDKQKQFVENQLGYKETTSTNSHNFHSKSFTQPAYLISGIDSVNDQIIFSGFKAGSVGYDSSSSSSSSSSSSTKDQALAWSTTTSLDSKTGYKDLVTNDTGLNGPINGSFSIQDTFSFVVPYSGNHTNNGTTGPIKTAYPVKKDQKSTVKINSLINATPLNSYGDEGIGVFDALGLNYNFKSNQERLPSRTDQIFVYGIVSPNELRSAKSSADSTGSDTKVNWSNTQSRYLPVPYNYSEGIIDADGFKRPENRGASVTTFSGLKSIAPDGFANSIANFSVGLKAGIDPNPVMSGKKANYGAVVLTRGGVVRLNFNPGNDSLLSTTDNNIAPISFSFTPFTAAESAVDLTTFKEVTYNQESGLWSYIFDSSLKPSHDGKQTPVTDNMGFSVITVSRTGIELNQDQATTTLDVAPSALAVQSGIQSTTQTLTGVLPLSEEFSAVIAKDSDQNKIDIYKNNNGLFEIDTQLSNSVATNNGGLAPSYTENRVDAWGKVEFADNSVLQARNLVDKTVDEIINTPEILNSFFRFTPAFEDQKATLVATKQSDTSLSVSPRIQFLDGNFYDLNSTIAGVPLNIGFPSRVFAGFAALP
notes: P110, product of gene MG_192 of Mycoplasma genitalium strain G37, residues 23–938 (complete extracellular region), amplified from a synthetic clone; source: E. coli B834 (DE3), purified (Histrap, Superdex 200), same protocol as for P110N
binding result [3]: binds
